Data published in PMC2726291, “Sus1, Cdc31, and the Sac3 CID Region Form a Conserved Interaction Platform that Promotes Nuclear Pore Association and mRNA Export” (Molecular Cell, 2009).

T1: 6XHis-ENY2 (human, UniProt Q9NPA8 1-101)
T1 construct: ENY2, human homolog of Sus1; cDNA cloned into the NdeI and SalI sites of pET28a; also called human Sus1 homolog; DC6/ENY2; source: E. coli BL21, purified (Ni-NTA Agarose)
T1 sequence (looked up): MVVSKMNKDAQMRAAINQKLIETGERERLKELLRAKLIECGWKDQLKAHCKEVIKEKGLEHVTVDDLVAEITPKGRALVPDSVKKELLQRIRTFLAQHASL

T2: Sac3 residues 723–805 (Sac3^CID) (yeast, UniProt P46674 723-805)
T2 construct: Vector pGEXTEV; also called CID domain; not shown: GST, N-terminal, cleaved
T2 sequence (looked up): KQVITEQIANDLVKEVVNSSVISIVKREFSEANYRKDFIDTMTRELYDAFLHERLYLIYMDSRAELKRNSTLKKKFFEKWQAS

T3: Sus1 (of the in vitro binding studies of Figure S6) (yeast, UniProt Q6WNK7 1-96)
T3 construct: Sus1, yeast
T3 sequence (looked up): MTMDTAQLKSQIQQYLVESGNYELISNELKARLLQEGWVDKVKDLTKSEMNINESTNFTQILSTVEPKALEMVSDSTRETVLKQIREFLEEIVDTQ

B1: GST-GANP(1162–1240) (domain or fragment, human, UniProt O60318 1162-1240, looked up)
chain: ELVLSELSQGLAVELMERVMMEFVRETCSQELKNAVETDQRVRVARCCEDVCAHLVDLFLVEEIFQTAKETLQELQCFC
notes: Vector pGEXTEV; not shown: GST, N-terminal, kept
B2: Sac3 residues 753–805 (domain or fragment, yeast, UniProt P46674 753-805, looked up)
chain: EANYRKDFIDTMTRELYDAFLHERLYLIYMDSRAELKRNSTLKKKFFEKWQAS
notes: Vector pGEXTEV; not shown: GST, N-terminal, cleaved
B3: GST-GANP(1162–1204) (domain or fragment, human, UniProt O60318 1162-1204, looked up)
chain: ELVLSELSQGLAVELMERVMMEFVRETCSQELKNAVETDQRVR
notes: as for B1
B4: GST-Sac3(723–752) (domain or fragment, yeast, UniProt P46674 723-752, looked up)
chain: KQVITEQIANDLVKEVVNSSVISIVKREFS
notes: Vector pGEXTEV; source: E. coli, immobilised on glutathione Sepharose 4B resin from clarified lysate; not shown: GST, N-terminal, kept
B5: GST-Sac3(758–805) (domain or fragment, yeast, UniProt P46674 758-805, looked up)
chain: KDFIDTMTRELYDAFLHERLYLIYMDSRAELKRNSTLKKKFFEKWQAS
notes: Vector pGEXTEV; The methods say that GST-Sac3 fragments were coexpressed with Cdc31; source: E. coli, immobilised on glutathione Sepharose 4B resin from clarified lysate; not shown: GST, N-terminal, kept
B6: Cdc31 (recombinant, untagged, full length) (natural protein, yeast, UniProt P06704 1-161, looked up)
chain: MSKNRSSLQSGPLNSELLEEQKQEIYEAFSLFDMNNDGFLDYHELKVAMKALGFELPKREILDLIDEYDSEGRHLMKYDDFYIVMGEKILKRDPLDEIKRAFQLFDDDHTGKISIKNLRRVAKELGETLTDEELRAMIEEFDLDGDGEINENEFIAICTDS
notes: Cdc31, yeast, full length, cloned into pET30a and called untagged; the model holds residues 9–161; source: E. coli BL21(DE3) CodonPlus RIL, coexpressed with GST-Sac3 fragments, purified as a complex
B7: Sus1 (recombinant, untagged, full length) (natural protein, yeast, UniProt Q6WNK7 1-96, looked up)
chain: T3 sequence (looked up)
notes: Sus1, yeast, full length; the model holds residues 6–95; also called Sus1A; Sus1B; source: E. coli BL21(DE3) CodonPlus RIL, untagged vector pOPT, purified as a complex with Sac3 fragment and Cdc31
B8: Sac3 (construct of the in vitro binding studies of Figure S6) (domain or fragment)
chain: T2 sequence (looked up)
modifications: Supplement text on Sus1 affinity (Figure S6): plates coated with GST-Sac3(723-805) co-complexed with full-length Cdc31; GST and the Cdc31 partner chain (P06704) omitted here

What was measured:
6XHis-ENY2 = target: T1, 6XHis-ENY2; experiment: pull-down; GST or GST fusions immobilised on glutathione Sepharose 4B; purified ENY2 added in 10-fold excess, washed extensively with NB buffer (150 mM NaCl, 50 mM KOAc, 20 mM Tris, 2 mM Mg(OAc)2, 0.1% NP-40); SDS-PAGE (Figure S4); conditions: both partners purified
[1] = target: B6; experiment: crystal structure; Sac3 fragment:Cdc31:Sus1 complexes, hanging drop vapor diffusion in PEG solutions at 19°C; 2.5 Å (Sac3 753–805) and 2.7 Å (Sac3 723–805); conditions: both partners purified
[2] = target: B7; experiment: as above; conditions: both partners purified
[3] = target: T2, Sac3 residues 723–805 (Sac3^CID); experiment: as above; conditions: both partners purified
[4] = target: T3, Sus1 (of the in vitro binding studies …); experiment: not stated; in vitro binding studies (Figure S6)

B1: binds (6XHis-ENY2).

B2: binds [1]; binds [2].

B3: binds (6XHis-ENY2).

B4: binds (6XHis-ENY2).

B5: binds (6XHis-ENY2).

B6 was tested, and the “stoichiometry N” value [3] was 1.

In the case of B7, the “stoichiometry N” value [3] is reported as 2.

B8 was tested, and the Kd [4] was ~10 nM.
